Measurements published in US20240010747A1, “ANTI-MRP4 (ENCODED BY ABCC4 GENE) ANTIBODIES AND USES THEREOF” (Kenjockety Biotechnology, Inc., priority 2020, published 2024).

B1: C4.884: anti-ABCC4 antibody raised in rats; VH SEQ ID NO: 1, VL SEQ ID NO: 124 (antibody, V domains shown)
VH: EVQLVESGPGLVQPSQTLSLTCTVSGFSLTSNSVHWVRQPPGKGLEWIGAIWSGGSTDYNSALKSRLSISRDTSKSQVFLKMNSLQTEDTAIYFCTGLIFPYWGQGASVTVSS
VL: DVVMTQTPSILSGTLGRSVSISCRSSQSLLDSDGTTYLYWFLQRPGQSPQRLIYLVSNLGSGVPNRFSGSGSGTDFTLKISGVEAEDLGVYYCMQATHVPFTFGSGTKLEIK
B2: C4.1054 (antibody, V domains shown)
VH: QVQLLQSGAALVKPGASVKMSCKPSGYTFTDYWVSWVKQSHGKSLEWIGEIYPNNGATNFNEKFKGKATLTVDKSTSTAYMELSRLTSEDSAIYYCPSRKYGYNWNFDYWGQGTMVTVSS
VL: DIVLTQSPALAVSLGQRATISCRARQSVSISRYNLMHWYQQKPGQQPKVLIYRASNLASGIPARFSGSGSGTDFTLTIDPVQADDIATYYCQQSRDSPWTFGGGTKLELK
B3: C4.925: anti-ABCC4 antibody raised in rats; VH SEQ ID NO: 3, VL SEQ ID NO: 126 (antibody, V domains shown)
VH: EVQLVESGGGLVQPGRSLKLSCAASGFTFSDYYMAWVRQAPTKGLEWVAYINYDGGSTHYGDSVKGRFTISRDNEKSTLYLQMNSLRSEDMATYYCARENYGYNSFDYWGQGASVTVSS
VL: DIQVTQSPASLSASLGETISIECLTSEDISSYLTWYQQKPGKSPHLLIYGANSLQAGVPSRFSGSGSGTQYSLKISSMQPEDEGDYFCQQSYKFPLTFGSGTKLELK
B4: C4.1131 (antibody, V domains shown)
VH: EVKLVESDGGLVQPRKSLKLSCAASGFTFTDYYMAWVRQGPTMGLEWVATISNDGSTKYYRDSVKGRFTLSRDNAKTTLHLQMDSLRSEDTATYYCARLTIRYKGVMDAWGQGASVTVSS
VL: DVVMTQSPSHLAASPGESVSINCKASKNIYKYLAWYQQKPGKTNKLLIYSGSTLQSGTPSRFSGSGSGSDFTLTIRNLEPEDFGLYYCQHHNEYPPTFGGGTKLEIK
B5: C4.1134 (antibody, V domains shown)
VH: EVQLVESDGGLVQPGRSLKLSCAASGFTFSDFYMAWVRQAPTKGLEWIATISHDGRNTFYRDSVKGRFTISRDNAKRALYLQMDSLRSEDTATYYCASLTTRYKGVMEAWGQGASVTVSS
VL: B4 VL
B6: C4.947: anti-ABCC4 antibody raised in rats; VH SEQ ID NO: 5, VL SEQ ID NO: 128 (antibody, V domains shown)
VH: EVKLVESGGGLVQPGGSMRLSCAASGFTFTDFYMNWIRQPAGKAPEWLGFIRNKANAYTTAYNPSVKGRFTISRDNAQNMLYLQMNTLRAEDTATYYCARSNYGFDYWGQGVMVTVSS
VL: DVAMTQTPPSLSVAIGQSVSISCKSSQSLVYSDGKTYLHWLLQSSGRSPKRLIYQVSNLDSGVPDRFSGTGSQKDFTLKISRVEAKDLGVYYCAQTTHFPFTFGSGTKLEIK

Assays:
[1] = target: T1, human ABCC4 (Homo sapiens, UniProt O15439); assay: Flow cytometry (FACS) binding to C6 cells stably transfected to express human ABCC4 (Table 3 study); settings: C6 cells stably transfected to express human ABCC4, FACS; Table 3
T1 construct: expressed in transfected cells
T1 sequence (O15439 1-1325): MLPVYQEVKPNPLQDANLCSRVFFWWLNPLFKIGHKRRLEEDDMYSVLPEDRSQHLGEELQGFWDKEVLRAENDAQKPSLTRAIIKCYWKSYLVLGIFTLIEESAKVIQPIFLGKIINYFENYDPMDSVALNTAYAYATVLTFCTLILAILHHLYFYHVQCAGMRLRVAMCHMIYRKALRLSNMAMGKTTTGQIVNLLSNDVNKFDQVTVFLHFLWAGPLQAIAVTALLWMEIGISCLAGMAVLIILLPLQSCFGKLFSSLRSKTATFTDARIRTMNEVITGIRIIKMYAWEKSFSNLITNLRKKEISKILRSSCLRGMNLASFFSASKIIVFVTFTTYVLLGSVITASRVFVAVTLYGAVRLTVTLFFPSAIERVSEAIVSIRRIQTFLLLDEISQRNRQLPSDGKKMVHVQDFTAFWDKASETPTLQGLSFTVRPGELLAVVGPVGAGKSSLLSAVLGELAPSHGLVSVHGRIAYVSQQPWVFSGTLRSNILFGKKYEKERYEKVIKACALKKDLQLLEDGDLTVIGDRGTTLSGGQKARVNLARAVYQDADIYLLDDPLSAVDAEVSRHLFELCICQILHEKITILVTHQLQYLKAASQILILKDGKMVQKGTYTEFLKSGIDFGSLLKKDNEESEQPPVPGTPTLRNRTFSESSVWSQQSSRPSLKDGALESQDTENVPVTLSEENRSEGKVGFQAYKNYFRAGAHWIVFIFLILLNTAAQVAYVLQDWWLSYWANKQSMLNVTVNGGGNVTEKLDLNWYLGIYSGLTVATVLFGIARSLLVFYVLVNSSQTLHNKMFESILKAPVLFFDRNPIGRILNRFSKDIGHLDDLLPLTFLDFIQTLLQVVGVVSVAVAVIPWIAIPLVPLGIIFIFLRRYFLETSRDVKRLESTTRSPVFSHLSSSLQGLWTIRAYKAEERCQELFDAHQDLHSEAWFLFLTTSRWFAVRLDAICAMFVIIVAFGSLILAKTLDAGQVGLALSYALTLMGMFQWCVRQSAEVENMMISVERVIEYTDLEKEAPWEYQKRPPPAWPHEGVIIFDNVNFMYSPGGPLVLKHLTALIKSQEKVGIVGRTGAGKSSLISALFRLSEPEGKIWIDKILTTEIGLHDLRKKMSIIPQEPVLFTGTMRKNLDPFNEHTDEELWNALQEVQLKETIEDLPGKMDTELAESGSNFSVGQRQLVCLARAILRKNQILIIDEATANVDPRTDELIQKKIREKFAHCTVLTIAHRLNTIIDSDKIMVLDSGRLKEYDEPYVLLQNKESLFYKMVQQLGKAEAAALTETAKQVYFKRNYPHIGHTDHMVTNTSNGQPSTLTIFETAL
Procedure: (§1) Binding titration of recombinant antibodies to ABCC4 transfectants was performed by serial dilution of antibodies from about 666 nM. Diluted antibody in flow cytometry buffer was incubated with cells on ice for 30 min. After 2 washes with flow cytometry buffer, bound antibody was detected with PE-labeled F(ab′)2 fragment goat anti-human IgG (Jackson ImmunoResearch) diluted 1:200 in flow cytometry buffer and incubated with cells for 20 min on ice. After 2 washes with flow cytometry buffer fluorescence was measured on an Attune N×T flow cytometer. Data were analyzed with GraphPad Prism 8.0 software to determine EC50's.
(§2) Human embryonic kidney HEK 293T cells and murine C6 (ATCC CCL-107) were transfected with human or cynomolgus ABCC4 cDNA with C-terminal fused FLAG tag in a pMONO-hygro vector with Lipofectamine 3000 (Invitrogen #L3000001). The cells were treated with 0.2 mg/ml and 0.5 mg/ml hygromycin respectively for about 2 weeks while cultivated in DMEM and 10% FBS with 0.2 mg/ml hygromycin and 0.5 mg/ml hygromycin, respectively. The cells were washed with PBS, and stained with […] of anti-FLAG-PE after fixing and permeablization. Clones expressing ABCC4 were single-cell sorted into 200 μl DMEM with 10% FBS using a BD Aria FACS machine and cultivated in 96 well plates using standard techniques in an incubator at 37° C. and 5% CO 2. Two weeks later clones expressing high levels of ABCC4 were screened and amplified.
(§3) Antibody binding to cells was evaluated by flow cytometry. Murine C6 cells stably transfected to express human or cynomolgus ABCC4 were washed once in flow cytometry buffer (PBS+2% FBS+0.02% sodium azide), resuspended at 2×10^6 cells/mL in flow cytometry buffer, and dispensed into 96-well microtiter plates at 0.1 mL/well. Recombinant antibodies were added to cells at 5 ug/mL for initial binding confirmation, or serially diluted from 100 ug/mL in flow cytometry buffer. After incubating cells on ice for 30 min, cells were washed twice with flow cytometry buffer. Bound antibody was detected with PE-labeled F(ab′)2 fragment goat anti-human IgG (Jackson ImmunoResearch) and evaluated on an Attune N×T flow cytometer. EC50 is calculated to be the concentration of antibody that gives half maximal response.
(§4) Table 3 lists the following characteristics of the rat anti-ABCC4 antibodies tested: binding to C6 cells stably transfected to express human ABCC4 measured by FACS and binding to C6 cells stably transfected to express cynomolgus ABCC4 measured by FACS. Negative (−) is defined as maximum response (Rmax(MFI)) below background level. Positive (+) is defined as MFI>1000.

[2] = test system: cynomolgus ABCC4; assay: Flow cytometry (FACS) binding to C6 cells stably transfected to express cynomolgus ABCC4 (Table 3 study); set-up: key to Cynomolgus ABCC4 binding: Negative (−) is defined as maximum response (Rmax(MFI)) below background level; Positive (+) is defined as MFI>1000; settings: C6 cells stably transfected to express cynomolgus ABCC4, FACS; Table 3
Procedure: as §1, §2, §3, §4

[3] = target: T1, human ABCC4; assay: Flow cytometry (FACS) binding to C6 cells stably transfected to express human ABCC4 (different experiment, Table 4); settings: for Human ABCC4 binding: C6 cells stably transfected to express human ABCC4, FACS, different experiment, Table 4; for binding to human ABCC4 expressed on cell surface: Table 4 study, stated in words
In short: (§5)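 Murine C6 cells stably expressing FLAG-tagged human or cynomolgus ABCC4 incubated 30 min on ice with antibodies, either 5 ug/mL or serially diluted from 100 ug/mL, in PBS+2% FBS+0.02% azide. Detection with PE anti-human IgG F(ab′)2 by flow cytometry; EC50 at half-maximal MFI; negative below background, positive >3× background.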

[4] = test system: cynomolgus ABCC4; assay: Flow cytometry (FACS) binding to C6 cells stably transfected to express cynomolgus ABCC4 (different experiment, different C6.cC4 cell line, Table 4); set-up: key to Cynomolgus ABCC4 binding: Negative (−)=Rmax (MFI) below background level; Positive (+)=MFI>3× background level; settings: for Cynomolgus ABCC4 binding: different C6.cC4 cell line, C6 cells stably transfected to express cynomolgus ABCC4, FACS, Table 4; for binding to cynomolgus ABCC4 expressed on cell surface: Table 4 study, stated in words
In short: as §5

[5] = target: T2, human ABCC4 (human, UniProt O15439 1-1325); assay: FACS, C6 cells stably expressing human ABCC4; + = MFI>3x background
T2 construct: Expressed on murine C6 cells stably transfected with human ABCC4 cDNA with C-terminal FLAG tag; also called MRP4; Multidrug resistance protein 4; not shown: C-terminal fused FLAG tag
T2 sequence: T1 sequence (O15439 1-1325)
Procedure: as §3, with “2×10\hat{ }6” for “2×10^6”, “F(ab′)₂” for “F(ab′)2”

Row | Molecule | Human ABCC4 binding [1] | Cynomolgus ABCC4 binding [2] | Human ABCC4 binding [3] | Cynomolgus ABCC4 binding [4] | binding to human ABCC4 expressed on cell surface [3] | binding to cynomolgus ABCC4 expressed on cell surface [4] | binding result [5]
1 | B1 | + (Positive (+) is defined as MFI>1000) | − | + (Positive (+)=MFI>3× background level) | − |  |  | 
2 | B2 |  |  | + (Positive (+)=MFI>3× background level) | + (Positive (+)=MFI>3× background level) | bind to both human and cynomolgus ABCC4 | bind to both human and cynomolgus ABCC4 | binds
3 | B3 | + (Positive (+) is defined as MFI>1000) | − | + (Positive (+)=MFI>3× background level) | − |  |  | 
4 | B4 |  |  | + (Positive (+)=MFI>3× background level) | + (Positive (+)=MFI>3× background level) | bind to both human and cynomolgus ABCC4 | bind to both human and cynomolgus ABCC4 | binds
5 | B5 |  |  | + (Positive (+)=MFI>3× background level) | + (Positive (+)=MFI>3× background level) | bind to both human and cynomolgus ABCC4 | bind to both human and cynomolgus ABCC4 | binds
6 | B6 | + (Positive (+) is defined as MFI>1000) | − | + (Positive (+)=MFI>3× background level) | − |  |  | 
